Test results taken from PMC10907721.

Target: T1, Hop1 CBR WT (Saccharomyces cerevisiae) (UniProt P20050)
T1 sequence: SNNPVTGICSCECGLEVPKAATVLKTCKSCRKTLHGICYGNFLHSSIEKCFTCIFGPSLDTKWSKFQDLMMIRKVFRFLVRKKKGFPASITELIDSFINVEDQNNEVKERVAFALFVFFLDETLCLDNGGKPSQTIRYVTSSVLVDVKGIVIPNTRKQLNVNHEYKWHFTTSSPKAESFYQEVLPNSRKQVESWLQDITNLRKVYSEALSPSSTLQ
Experiment: EMSA
Conditions: EMSA: 20 mM Tris-HCl pH 7.5, 25 mM NaCl, 2 mM beta-mercaptoethanol, 10% glycerol; 50 nM nucleosome or DNA; 15 min room temperature; 6% TBE-acrylamide gel, 0.2X …

With “TGGAGAATCCCGGTGCCGAGGCCGCTCAATTGGTCGTAGACAGCTCTAGCACCGCTTAAACGCACGTACGCGCTGTCCCCCGCGTTTTAACCGCCAAGGGGATTACTCCCTAGTCTCCAGGCACGTGTCAGATATATACATCCTGT (double strand) [Widom 601 mononucleosome (human histones)]” the Kd was 470 nM.
